# Data as given in PMC11112752 (Biochemistry, 2024).
# B1: SARS coronavirus 1 nonstructural protein 1 (nsp1) (natural protein)
# chain: MESLVLGVNEKTHVQLSLPVLQVRDVLVRGFGDSVEEALSEAREHLKNGTCGLVELEKGVLPQLEQPYVFIKRSDALSTNHGHKVVELVAEMDGIQYGRSGITLGVLVPHVGETPIAYRNVLLRKNGNKGAGGHSYGIDLKSYDLGDELGTDPIEDYEQNWNTKHGSGALRELTRELNGG
# Key:
# [1] = target: T1, SCOV1 nsp1 (SARS coronavirus 1 (Urbani strain), UniProt P0C6X7 1-180); test: EMSA; settings: protein: recombinant; tags: expressed as GST fusion (pGEX); untagged 19 kDa form described, tag state in EMSA not explicit; label: biotin; stem-loop (-6.83 kcal/mol, RNAfold)
# [2] = target: T1, SCOV1 nsp1; test: EMSA; prefolded RNA; S and L complexes, n=4; settings: protein: recombinant; tags: expressed as GST fusion (pGEX); untagged 19 kDa form described, tag state in EMSA not explicit; label: biotin; hairpin
# [3] = target: T2, SCOV2 nsp1 (SARS coronavirus 2, UniProt P0DTD1 1-180); test: EMSA; settings: protein: recombinant; tags: expressed as GST fusion (pGEX); label: biotin; hairpin
# [4] = target: the molecule itself; test: pull-down
# [5] = target: T2, SCOV2 nsp1; test: EMSA; 7 uM nsp1; settings: protein: recombinant; tags: expressed as GST fusion (pGEX); label: biotin; hairpin
# [6] = target: T1, SCOV1 nsp1; test: EMSA; 7 uM nsp1; slow-moving complex; settings: protein: recombinant; tags: expressed as GST fusion (pGEX); untagged 19 kDa form described, tag state in EMSA not explicit; label: biotin; hairpin
binder,measurement,setting,value
UCCUGCUUCAACAGUGCUUGGACGGAAC (structured_RNA) [control RNA (EMSA kit)],binding result,[1],no binding
AUAUUAGGUUUUUACCUACCCAGGAAAAGCCAACCAACCUCGAU (structured_RNA) [SCOV1-SL1],Kd,[2],1400 ± 120 nM
same,binding result,[3],binds
B1,binding result,[4],binds
AUUAAAGGUUUAUACCUUCCCAGGUAACAAAACCAACCAACUUUC (structured_RNA) [SCOV2-SL1],binding result,[5],binds
same,binding result,[6],binds
